In article PMC2879411, “Molecular Basis for the Dual Function of Eps8 on Actin Dynamics: Bundling and Capping” (PLoS Biology, 2010):

Molecular target: monomeric actin (CaATP-G-actin) from rabbit muscle, unlabelled (rabbit, UniProt P68135 1-377)
Assay: cell-based or functional assay

B1: Eps8 isolated predicted helix H5 (residues 765–788) (peptide)
chain: VCPEGARVFNQITVQKAALEDSNG
Question: How did the “Kd from inhibition of barbed end growth (spectrin-actin seeds)” value turn out when B1 was run?
Answer: 40 µM

Question: And the “Kd from inhibition of pointed end growth (gelsolin-actin seeds)” value?
Answer: 32 µM
